Measured values reported in patent US20220177604A1 (ARGENX, published 2022).
Positions count from the first letter of the chain named.

B1: OMA VH15 - VL3 (antibody, V domains shown)
VH: EVQLVESGGGLVQPGGSLRLSCAVSGYSITSGHRWEWIRQAPGKGLEWVASIHYDGSTNYNPSVKGRITISRDDSKNTFYLQMNSLRAEDTAVYYCARATHYFGHWHFAVWGQGTLVTVSS
VL: DIQLTQSPSSLSASVGDRVTITCRASQSVDYDGDSYMNWYQQKPGKAPKLLIEWGSYLRSGVPSRFSGSGSGTDFTLTISSLQPEDFATYYCQQNAEDPYTFGQGTKVEIK
B2: OmaVH15G55HW100b - VL3S31H (antibody, V domains shown)
VH: B1 VH with G56H, W106H
VL: B1 VL with S35H
B3: Oma VH15W100b - VL3D28H (antibody, V domains shown)
VH: B1 VH with W106H
VL: B1 VL with D32H
notes: also called Oma VH15W100b VL3D25H
B4: OMA VH15 - VL3S31H (antibody, V domains shown)
VH: B1 VH
VL: B1 VL with S35H
B5: OmaVH15G55H - VL3D28H (antibody, V domains shown)
VH: B1 VH with G56H
VL: B1 VL with D32H
notes: also called OmaVH15G55H VL3D25H
B6: Oma VH15W100b - VL3 (antibody, V domains shown)
VH: B1 VH with W106H
VL: B1 VL
B7: Oma VH15W100b - VL3S31H (antibody, V domains shown)
VH: B1 VH with W106H
VL: B1 VL with S35H
B8: OmaVH15G55HW100b - VL3D28H (antibody, V domains shown)
VH: B1 VH with G56H, W106H
VL: B1 VL with D32H
notes: also called OmaVH15G55HW100b VL3D25H
B9: OMA VH15 - VL3D28H (antibody, V domains shown)
VH: B1 VH
VL: B1 VL with D32H
notes: also called OMA VH15 VL3D25H
B10: OmaVH15G55H - VL3S31H (antibody, V domains shown)
VH: B1 VH with G56H
VL: B1 VL with S35H
B11: Oma VH15W100b - VL3D28HS31H (antibody, V domains shown)
VH: B1 VH with W106H
VL: B1 VL with D32H, S35H
B12: OMA VH15 - VL3D28HS31H (antibody, V domains shown)
VH: B1 VH
VL: B1 VL with D32H, S35H
B13: OmaVH15G55HW100b - VL3 (antibody, V domains shown)
VH: B1 VH with G56H, W106H
VL: B1 VL
B14: OmaVH15G55H - VL3 (antibody, V domains shown)
VH: B1 VH with G56H
VL: B1 VL
B15: OmaVH15G55H - VL3D28HS31H (antibody, V domains shown)
VH: B1 VH with G56H
VL: B1 VL with D32H, S35H

These binders were tested against T1, recombinant Motavizumab human IgE (rMota-hIgE) (human, UniProt P01854 1-428) (assay: hIgE binding ELISA, pH 7.4).
T1 construct: also called Recombinant IgE (argenx)
T1 sequence (P01854 other isoform, or with tags, fused parts or gaps limits assumed, form in doubt): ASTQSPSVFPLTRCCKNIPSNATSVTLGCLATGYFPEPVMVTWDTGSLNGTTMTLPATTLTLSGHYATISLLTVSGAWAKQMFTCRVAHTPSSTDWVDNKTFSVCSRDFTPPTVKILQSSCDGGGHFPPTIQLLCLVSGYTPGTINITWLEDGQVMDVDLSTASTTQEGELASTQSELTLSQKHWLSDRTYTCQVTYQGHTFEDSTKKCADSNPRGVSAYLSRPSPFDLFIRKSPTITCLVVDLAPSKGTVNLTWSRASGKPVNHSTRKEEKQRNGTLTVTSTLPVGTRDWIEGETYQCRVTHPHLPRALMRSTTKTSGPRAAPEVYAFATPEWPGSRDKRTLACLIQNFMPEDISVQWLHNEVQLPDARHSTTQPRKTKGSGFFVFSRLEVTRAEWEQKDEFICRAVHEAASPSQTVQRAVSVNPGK
Procedure: (§1) Briefly a Maxisorp plate was coated with recombinant human respiratory syncytial virus protein F (RSV-F) (0.5 μg/mL), then blocked with PBS with 3% BSA and 0.05% Tween. […] After several washing steps at pH 7.4 or pH 5.5, detection of the bound mAbs was carried out with an anti-human Fc-HRP antibody.

Row | Binder | EC50 [µg/mL]
1 | B1 | 0.0202
2 | B2 | 0.0191
3 | B3 | 0.015
4 | B4 | 0.02
5 | B5 | 0.0264
6 | B6 | 0.0174
7 | B7 | 0.0152
8 | B8 | 0.0135
9 | B9 | 0.0163
10 | B10 | 0.0153
11 | B11 | 0.0156
12 | B12 | 0.0153
13 | B13 | 0.0164
14 | B14 | 0.0255
15 | B15 | 0.0154

Each binder was assayed against T1, recombinant Motavizumab human IgE … (assay: hIgE binding ELISA).
Procedure: as §1

Row | Binder | Ratio EC50 pH 5.5/7.4 | Ratio EC50 pH 7.4/5.5
16 | B1 | 1.1 | 0.93
17 | B4 | 0.9 | 1.12
18 | B5 | 0.9 | 1.05
19 | B6 | 1.9 | 0.53
20 | B8 | 9.6 | 0.1
21 | B9 | 1 | 0.99
22 | B10 | 1.5 | 0.67
23 | B12 | 1.2 | 0.86
24 | B13 | 13.5 | 0.07
25 | B14 | 0.9 | 1.16
26 | B15 | 1.5 | 0.67

The binders below were run against T1, recombinant Motavizumab human IgE … (assay: hIgE binding ELISA, pH 5.5).
Procedure: as §1

Row | Binder | EC50 [µg/mL]
27 | B1 | 0.0217
28 | B4 | 0.0179
29 | B5 | 0.0251
30 | B6 | 0.0326
31 | B8 | 0.13
32 | B9 | 0.0164
33 | B10 | 0.023
34 | B12 | 0.0178
35 | B13 | 0.221
36 | B14 | 0.022
37 | B15 | 0.023

These binders were tested against T2, human immunoglobulin E (hIgE) (human, UniProt P01854-1 1-428) (assay: SPR (Biacore)).
T2 construct: also called human IgE; Native IgE (Abcam)
T2 sequence (P01854 whole entry): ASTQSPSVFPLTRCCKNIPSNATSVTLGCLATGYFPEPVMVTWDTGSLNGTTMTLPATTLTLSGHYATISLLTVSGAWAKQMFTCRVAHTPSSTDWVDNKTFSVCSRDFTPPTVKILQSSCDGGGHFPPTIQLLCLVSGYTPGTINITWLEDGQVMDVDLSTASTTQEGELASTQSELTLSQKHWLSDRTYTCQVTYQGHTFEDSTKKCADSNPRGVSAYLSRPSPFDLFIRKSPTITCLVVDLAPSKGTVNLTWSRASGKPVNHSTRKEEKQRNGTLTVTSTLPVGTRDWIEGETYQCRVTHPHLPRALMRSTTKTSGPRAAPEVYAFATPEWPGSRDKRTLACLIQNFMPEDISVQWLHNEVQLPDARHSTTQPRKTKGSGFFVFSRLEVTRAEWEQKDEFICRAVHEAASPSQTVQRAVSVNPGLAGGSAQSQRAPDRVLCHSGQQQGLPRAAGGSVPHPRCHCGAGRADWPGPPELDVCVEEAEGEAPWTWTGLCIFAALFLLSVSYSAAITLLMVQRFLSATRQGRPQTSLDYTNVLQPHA

Row | Binder | Ratio pH 7.4/pH6.0 (of KD)
38 | B2 | 20.3
39 | B3 | 7.5
40 | B4 | 16.7
41 | B5 | 6
42 | B6 | 10.2
43 | B7 | 31.1
44 | B8 | 9
45 | B9 | 15.6
46 | B10 | 6.8
47 | B11 | 23.5
48 | B12 | 11.7
49 | B13 | 17.2
50 | B14 | 5.6
51 | B15 | 6.4

The binders below were run against T2, human immunoglobulin E (hIgE) (assay: SPR (Biacore), pH 6.0).

Row | Binder | Kd [nM] | koff [s⁻¹] | kon [M⁻¹ s⁻¹]
52 | B1 | 1.03 | 0.00029 | 281000
53 | B2 | 312 | 0.0986 | 243000
54 | B3 | 64.5 | 0.0148 | 232000
55 | B4 | 8.93 | 0.00228 | 261000
56 | B5 | 4.39 | 0.00117 | 265000
57 | B6 | 29.8 | 0.00875 | 294000
58 | B7 | 190 | 0.0375 | 206000
59 | B8 | 136 | 0.0648 | 123000
60 | B9 | 2.62 | 0.000736 | 281000
61 | B10 | 9.07 | 0.00297 | 329000
62 | B11 | 206 | 0.0895 | 453000
63 | B12 | 12.8 | 0.00398 | 310000
64 | B13 | 150 | 0.0254 | 170000
65 | B14 | 1.8 | 0.000524 | 291000
66 | B15 | 16.1 | 0.00527 | 326000

These binders were tested against T2, human immunoglobulin E (hIgE) (assay: SPR (Biacore), pH 7.4).

Row | Binder | Kd [nM] | koff [s⁻¹] | kon [M⁻¹ s⁻¹]
67 | B1 | < 0.0769 | < 1e-05 | 130000
68 | B2 | 15.4 | 0.00391 | 253000
69 | B3 | 8.59 | 0.00182 | 213000
70 | B4 | 0.534 | 0.000166 | 310000
71 | B5 | 0.728 | 0.000206 | 283000
72 | B6 | 2.93 | 0.00103 | 351000
73 | B7 | 6.12 | 0.00244 | 398000
74 | B8 | 15.2 | 0.00303 | 200000
75 | B9 | 0.168 | 4.41e-05 | 264000
76 | B10 | 1.33 | 0.000402 | 301000
77 | B11 | 8.78 | 0.00251 | 290000
78 | B12 | 1.1 | 0.000334 | 302000
79 | B13 | 8.69 | 0.00226 | 261000
80 | B14 | 0.326 | 0.000105 | 323000
81 | B15 | 2.52 | 0.000722 | 286000

These binders were tested against T2, human immunoglobulin E (hIgE) (assay: competition ELISA, hIgE to hFcεRIα).

Row | Binder | IC50 [nM]
82 | B1 | 0.0803
83 | B2 | 446
84 | B3 | 35
85 | B4 | 0.206
86 | B5 | 0.187
87 | B6 | 1.4
88 | B8 | 172
89 | B9 | 0.137
90 | B10 | 0.485
91 | B11 | 585
92 | B12 | 0.722
93 | B13 | 23.2
94 | B14 | 0.0753
95 | B15 | 2.63
